Measured values taken from PMC13086497, “Heat shock factor regulation of antimicrobial peptides expression suggests a conserved defense mechanism induced by febrile temperature in arthropods”.

T1: LvHSF1 (rLvHSF1-GST) (Litopenaeus vannamei, UniProt X2D760 1-632)
T1 sequence: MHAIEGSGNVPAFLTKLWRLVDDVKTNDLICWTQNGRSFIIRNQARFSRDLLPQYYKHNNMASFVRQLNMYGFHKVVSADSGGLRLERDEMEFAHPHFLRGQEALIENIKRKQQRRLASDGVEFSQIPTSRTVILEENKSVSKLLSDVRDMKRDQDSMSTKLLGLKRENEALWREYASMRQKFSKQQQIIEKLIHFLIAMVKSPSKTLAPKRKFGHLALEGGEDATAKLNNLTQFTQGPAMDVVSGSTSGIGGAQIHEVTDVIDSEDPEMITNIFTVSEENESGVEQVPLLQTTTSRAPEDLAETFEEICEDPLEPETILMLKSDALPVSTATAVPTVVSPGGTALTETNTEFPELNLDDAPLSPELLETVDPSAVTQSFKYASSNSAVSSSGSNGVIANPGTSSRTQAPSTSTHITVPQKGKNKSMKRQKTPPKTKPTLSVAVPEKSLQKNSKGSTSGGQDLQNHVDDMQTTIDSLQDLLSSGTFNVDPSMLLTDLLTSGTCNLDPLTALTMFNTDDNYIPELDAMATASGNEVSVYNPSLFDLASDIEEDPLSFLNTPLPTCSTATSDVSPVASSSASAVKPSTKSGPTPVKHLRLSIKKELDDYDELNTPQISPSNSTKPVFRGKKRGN

B1: SWD-Probe1 (dsDNA)
DNA 1: TACCACTAGGACTTTCTATAGAACCATCTTTGCTTCACTATAACA
DNA 2: TGTTATAGTGAAGCAAAGATGGTTCTATAGAAAGTCCTAGTGGTA
B2: SWD-Probe2 (dsDNA)
DNA 1: GTTGGGATTTCCATGATGACTTTTCGAGGAATTAGTGGCTGCGTG
DNA 2: CACGCAGCCACTAATTCCTCGAAAAGTCATCATGGAAATCCCAAC
B3: Mut-SWD-Probe1 (dsDNA)
DNA 1: TACCACTAGGACTTTCCAAACGGCCAGGTTTGCTTCACTATAACA
DNA 2: TGTTATAGTGAAGCAAACCTGGCCGTTTGGAAAGTCCTAGTGGTA

Biological target: T1, LvHSF1 (rLvHSF1-GST)
Assay: EMSA; EMSA: 10 ug recombinant protein, 20 fmol biotin probe, LightShift Chemiluminescent EMSA kit, 5% native PAGE; buffer, pH and temperature not stated
Settings: blunt
[1] = chain copies: 3, label: biotin (labeled probe)

Binder | binding result [1] | binding result (chain copies: 3, label: biotin)
B1 | binds | –
B2 | binds | –
B3 | – | no binding
